One block for each binder: values may come before it.
Experiments:
[1] = target: T1, E. coli RAGE Construct #1, OmpA-[RAGE (23-340)]-6His (human, UniProt Q15109 23-340); experiment: ELISA, fragment coated at 1 µg/ml
T1 construct: Not glycosylated (E. coli); also called RAGE protein #1; E. coli-expressed sRAGE
Protocol: Antigens (purified construct #1-7 proteins) were diluted into Coating Buffer [100 mM NaHCO₃, pH 8.2] to 1 μg/ml, and 100 μl of the resulting solution was then aliquoted into a 96-well Nunc Immuno Plate (Maxi-Sorb Surface, flat bottom, catalog #439454). The plate was sealed with sealing film and incubated at 4° C. overnight. The next day, the plate wells were each washed 3 times with 150 μL PBST buffer [Sigma PBS+0.05% Tween 20]. Then 300 ul of blocking solution (3% NFDM in PBST) was added to each well. The plate was incubated for 2 hours at room temperature and shaking at 100 rpm. After the incubation step, each well was again washed three times with 150 uL PBST. […] The plate was then sealed with sealing film and incubated for 2 hours at room temperature and shaking at 100 rpm. Next the antibody solution was drained out of the wells, and each well then washed three times with 200 ul PBST. To each well then 200 ul of a 1:5000 dilution (in PBST/1% NFDM) of conjugated secondary antibody [Donkey anti-mouse HRPO conjugate, Jackson Immuno Research, Catalog #715-035-150] was added. The plate was covered and allowed to incubate for 1 hour at room temperature while shaking at 100 rpm. […] Finally, 50 μL of 2M H₂SO₄ was added to each well to stop the reaction and the A₅₄₀ₙₘ of each well was measured using a microtiter plate reader.

[2] = target: T2, hRAGE (1-331) / human sRAGE 1-331, V#400 (human, UniProt Q15109 23-331); experiment: Biacore SPR, mAb captured via anti-mouse Fc, human sRAGE 1-331 (V#400) injected, concurrent experiment, 1:1 fit
T2 construct: also called sRAGE [RAGE (1-331)]; RAGE (antigen of the Biacore runs)
T2 sequence (Q15109 23-331): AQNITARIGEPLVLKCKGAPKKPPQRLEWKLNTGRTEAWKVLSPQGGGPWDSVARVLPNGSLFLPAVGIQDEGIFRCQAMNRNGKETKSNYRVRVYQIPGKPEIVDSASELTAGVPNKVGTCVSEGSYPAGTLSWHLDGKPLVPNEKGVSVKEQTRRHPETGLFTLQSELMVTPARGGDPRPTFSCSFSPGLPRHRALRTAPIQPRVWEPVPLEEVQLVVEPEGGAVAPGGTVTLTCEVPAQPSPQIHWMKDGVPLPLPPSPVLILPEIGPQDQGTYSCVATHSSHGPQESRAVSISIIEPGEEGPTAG
Excerpt: Biacore 2000 and Biacore T100 instruments were used to measure anti-RAGE mAb binding kinetics. The assay format for mAb affinity analysis was Fc-based capture via immobilized anti-Fc antibodies. A standard amine coupling protocol was employed to immobilize Fc-specific IgG via primary amines to the carboxy-methyl (CM) dextran surface of CM5 sensorchips (Biacore). For the study of mouse anti-RAGE mAbs, anti-mouse Fc (Biacore, anti-mouse, BR-1005-14) was used as the immobilized capture reagent and for the study of humanized anti-RAGE mAbs, anti-human Fc (Pierce 31125) was used as the immobilized capture reagent. An automated protocol, available on the Biacore 2000 and Biacore T100, was used to immobilize 8000-10000 RU of capture reagent in all 4 flowcells of the sensorchip. Briefly, the CM-dextran surfaces were activated by freshly prepared 1:1 50 mM N-hydroxysuccinimide (NHS):200 mM 3-(N,N-dimethylamino) propyl-N-ethylcarbodiimide (EDC). Then the anti-Fc IgG capture reagent (20 ug/ml in 10 mM sodium acetate, pH4.5) was applied to the surface followed by deactivation of the surface and blocking of the residual reactive sites with 1M ethanolamine (pH 8.5).
Data were processed using either Biacore evaluation software or Scrubber 2.0 software (BioLogic Software). Briefly, the data were double referenced by first, subtracting the signal from the reference cell and second, by subtracting the signal from buffer-only injections. The double referenced data for the RAGE injection series were then fit globally to a 1:1 (Langmuir) binding model, which included a mass transfer term, to determine the binding kinetic rate constants, kₐ and kd, and the affinity, KD (kₐ=kₒₙ; kd=koff)

[3] = target: T3, recombinant human RAGE (plate coat of the competition ELISA of Example 1.4); experiment: competition ELISA on plates coated with recombinant human RAGE (2 µg/mL); competitor: biotinylated hybridoma-derived 11E6 (11E6-biotin), streptavidin-HRP, OD 450 nm; the unit comes from the axis 'Log MAbs (M)'
T3 construct: not shown: The carrier of the coated preparation, if it had one
T3 sequence (chain, as listed by the source limits assumed): as the sequence (Q15109 23-331) above
Protocol: (§1) The purified chimeric anti-human RAGE monoclonal antibodies were tested for their ability to bind human RAGE in a competition ELISA. […] Equal volumes (50 μL) of each recombinant chimeric anti-human RAGE monoclonal antibodies or hybridoma-derived anti-human RAGE monoclonal antibodies and each corresponding biotinylated hybridoma-derived anti-RAGE mAbs were mixed. 50 μL of this mixture was then added to ELISA plates pre-coated with recombinant human RAGE at 2 μg/mL and incubated for 1.5 hours at room temperature. Wells were washed three times with PBS+0.05% Tween-20. Streptavidin HRP (1 mg/mL) was diluted 1:16000 in PBST+10% Superblock; 50 µL/well was added and the plates incubated for 1 hour at room temperature. Plates were washed 3 times with PBS+0.05% Tween-20. 50 µL of TMB solution (Sigma, St Louis, Mo.) was added to each well and incubated for 10 minutes at room temperature. The reaction was stopped by addition of IN sulphuric acid. Plates were read spectrophotometrically at a wavelength of 450 nm.

[4] = target: T3, recombinant human RAGE (plate coat of …); experiment: competition ELISA on plates coated with recombinant human RAGE (2 µg/mL); competitor: biotinylated hybridoma-derived 4E5 (4E5-biotin), streptavidin-HRP, OD 450 nm; the unit comes from the axis 'Log MAbs (M)'
Protocol: as §1

T1 sequence (Q15109 other isoform, or with tags, fused parts or gaps limits assumed): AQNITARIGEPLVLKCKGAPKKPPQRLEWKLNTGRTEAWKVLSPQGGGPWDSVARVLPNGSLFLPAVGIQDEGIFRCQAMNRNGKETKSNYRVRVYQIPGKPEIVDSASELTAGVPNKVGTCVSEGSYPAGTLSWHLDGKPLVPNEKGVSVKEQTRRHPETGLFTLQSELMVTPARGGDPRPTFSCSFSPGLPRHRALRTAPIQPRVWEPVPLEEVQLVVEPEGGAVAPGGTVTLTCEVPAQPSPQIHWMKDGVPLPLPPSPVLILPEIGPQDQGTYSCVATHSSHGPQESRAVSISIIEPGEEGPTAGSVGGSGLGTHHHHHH

- binding result [1]: no binding
B1: anti-human RAGE monoclonal antibody 7F9 (murine, hybridoma-derived) (antibody, V domains shown)
VH: EEKLEESGGGLVQLGGSMKISCVASGFTLSNYWMDWVRQSPEKGLEWIAEIRLKSNYYSTHYAESVKGRFSISRDDSKGSVSLQMDNLTAEDTGIYFCARNAYWYFDVWGTGTTVTVSS
VL: DIVMTQSHKFMSTSVGDRVSATCKASQDVGTSVAWYQQKLGQSPKLLIYWTSTRHTGVPDRFTGSGSGTDFTLTISNVQSEDLADYFCQQYNNYPLTFGDGTKLELKR
notes: also called mAb7F9; MAb 7F9

- Kd [2]: 0.068 nM
- koff [2]: 0.0013 s⁻¹
- kon [2]: 1.8e+07 M⁻¹ s⁻¹
- EC50 [3]: 90.9 nM
B2: anti-human RAGE monoclonal antibody 11E6 (murine, hybridoma-derived) (antibody, V domains shown)
VH: QIQLVQSGPELKKPGETVKISCKASGYTFTNFGMNWVKQAPGKGLKWMGYINTNTGESIYSEEFKGRFAFSLETSASTAYLQINNLKNEDTATYFCARSRMVTAYGMDYWGQGTSVTVSS
VL: DIVMTQSQKFMSTSVGDRVSITCKASQNVGTAVAWYQQRPGQSPKLLIFSASNRYTGVPDRFTGSGSGTDFTLTLSNMQPEDLADYFCQQYSSYPLTFGVGTKLELKR
notes: also called mAb11E6; ML37-11E6

- EC50 [4]: 244 nM
B3: anti-human RAGE monoclonal antibody 4E5 (murine, hybridoma-derived) (antibody, V domains shown)
VH: QVQLQQSGAELVRPGTSVKVSCKASGYAFNNYLIEWIKQRPGQGLEWIGVINPGSGGTNHNEKFKVKATLTADKSSSTAYIQLSSLTSDDSAVYFCARSAGTARARFAYWGQGTLVTVSA
VL: DIQMTQSPSSLSASLGERVSLTCRASQDIGSSLNWLQQEPDGTIKRLIYATSSLDSGVPKRFSGSRSGSDYSLTISSLESEDFVDYYCLQYASFPFTFGSGTKLEIKR
notes: also called mAb4E5; ML37-4E5
